{
  "source": "paper PMC2643122",
  "about": "(Molecular Microbiology, 2008)",
  "proteins": {"B1": {"name": "recombinant full-length Candida albicans Ssa2 protein (natural protein)", "chain": "not shown"}},
  "target": "the molecule itself",
  "assay": "SEC",
  "data": [
    {"protein": "B1", "values": [
      {"measurement": "binding result", "result": "binds"}
    ]}
  ]
}
